# Values joined by “and” are separate entries in the source; they are usually repeats but may differ in a detail not shown here. Identical values can stand only once.
# B1: Stu2-TOG2 (318–560) (domain or fragment)
# chain: MLPEETILDKLPKDFQERITSSKWKDRVEALEEFWDSVLSQTKKLKSTSQNYSNLLGIYGHIIQKDANIQAVALAAQSVELICDKLKTPGFSKDYVSLVFTPLLDRTKEKKPSVIEAIRKALLTICKYYDPLASSGRNEDMLKDILEHMKHKTPQIRMECTQLFNASMKEEKDGYSTLQRYLKDEVVPIVIQIVNDTQPAIRTIGFESFAILIKIFGMNTFVKTLEHLDNLKRKKIEETVKTL
# Target: biotinylated polymerization-blocked yeast αβ-tubulin, LR1 (β: T175R, V179R) (S. cerevisiae) (UniProt P09733)
# Test: BLI; biotinylated polymerization-blocked tubulin immobilised on Streptavidin (SA) biosensors (OctetR8), dipped into TOG2 at 2.3 to 200 nM; 100 mM PIPES pH 6.9, 10 mM NaCl, 1 mM MgCl2, 1 mM EGTA, 1 mM GTP, 0.1% BSA, 0.005% Triton X-100; association 300 s, dissociation 300 s; 1:1 model; steady-state amplitudes and global kinetic fit
binder,measurement,value
B1,Kd,8.9 nM and 9.6 nM
same,koff,0.03 s⁻¹
same,kon,3.2e+06 M⁻¹ s⁻¹

# Reference: article PMC13541299
